In US20240092920A1 (KEYMED BIOSCIENCES, published 2024):
Numbering of substitutions follows the chain as printed.

T1: recombinant protein of cynomolgus IL-4Rα extracellular region (cynomolgus monkey)
T1 construct: also called cynoIL-4Rα; cynomolgus monkey IL-4Rα
T1 chain: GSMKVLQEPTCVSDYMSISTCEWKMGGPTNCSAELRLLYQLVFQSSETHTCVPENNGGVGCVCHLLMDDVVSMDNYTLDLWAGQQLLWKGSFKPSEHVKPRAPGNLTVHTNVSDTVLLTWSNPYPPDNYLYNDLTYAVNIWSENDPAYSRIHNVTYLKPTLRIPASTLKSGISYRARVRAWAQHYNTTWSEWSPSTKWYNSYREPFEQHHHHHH

T2: hIL-4Rα, full length, on stably transfected HEK293 cells (human, UniProt P24394 26-825)
T2 construct: whole, on cells; also called HEK293-hIL-4Rα
T2 sequence (looked up): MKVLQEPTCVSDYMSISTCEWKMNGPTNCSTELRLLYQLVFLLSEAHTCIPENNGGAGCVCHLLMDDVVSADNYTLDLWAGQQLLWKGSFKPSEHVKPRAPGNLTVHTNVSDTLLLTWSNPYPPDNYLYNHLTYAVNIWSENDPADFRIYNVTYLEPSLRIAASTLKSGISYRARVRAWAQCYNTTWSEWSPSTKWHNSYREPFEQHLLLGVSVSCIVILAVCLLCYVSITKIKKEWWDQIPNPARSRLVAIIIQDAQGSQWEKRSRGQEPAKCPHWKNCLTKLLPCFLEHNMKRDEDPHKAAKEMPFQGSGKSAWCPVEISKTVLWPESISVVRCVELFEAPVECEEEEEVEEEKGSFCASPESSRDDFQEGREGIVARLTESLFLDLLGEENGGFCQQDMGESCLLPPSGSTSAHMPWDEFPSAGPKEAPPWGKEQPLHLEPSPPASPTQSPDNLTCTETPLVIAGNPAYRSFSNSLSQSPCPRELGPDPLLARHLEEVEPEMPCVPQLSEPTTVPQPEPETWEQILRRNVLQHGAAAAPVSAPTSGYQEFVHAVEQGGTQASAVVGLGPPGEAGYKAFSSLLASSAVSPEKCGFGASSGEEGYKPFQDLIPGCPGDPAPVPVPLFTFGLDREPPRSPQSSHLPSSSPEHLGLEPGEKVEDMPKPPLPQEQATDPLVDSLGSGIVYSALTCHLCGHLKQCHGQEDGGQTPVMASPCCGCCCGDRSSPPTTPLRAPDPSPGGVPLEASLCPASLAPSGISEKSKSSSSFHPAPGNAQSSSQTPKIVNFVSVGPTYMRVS

T3: recombinant protein of human IL-4Rα extracellular region (human, UniProt P24394 26-232)
T3 construct: range 26-232; Made in HEK293-6E cells, purified on nickel chelate; Used biotin-labeled on SA probes in the Fortebio assays and unlabeled as ELISA coat; also called hIL-4Rα; IL-4Rα recombinant protein
T3 sequence: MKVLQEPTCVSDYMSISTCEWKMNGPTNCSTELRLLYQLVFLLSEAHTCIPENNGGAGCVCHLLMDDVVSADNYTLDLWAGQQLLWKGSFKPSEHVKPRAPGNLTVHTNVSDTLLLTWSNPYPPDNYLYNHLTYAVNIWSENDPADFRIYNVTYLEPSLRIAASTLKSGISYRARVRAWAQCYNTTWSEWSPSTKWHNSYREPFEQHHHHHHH

B1: 1021/1013 (antibody, IgG1, V domains shown)
VH: EVQLVESGGGLVKPGGSLRLSCAASGFTFSRYAMSWVRQAPGKGLEWVSTISSGGSYTNYADSVKGRFTISRDNVKNTLYLQMNSLRAEDTAVYYCARATARATEFAYWGQGTLVTVSS
VL: DIQMTQSPSSLSASVGDRVTITCQASQDISNYLNWYQQKPGKAPKLLIYYTSRLHSGVPSRFSGSGSGTDYTLTISSLQPEDFATYFCQQGNTLPLTFGGGTKVEIK
notes: Humanized candidate antibody; also called 1021/1013-IgG; VH1021 with VL1013
B2: 1026/1011 (antibody, V domains shown)
VH: QVQLVQSGAEVKKPGASVKMSCKASVYTFTGYNMHWVRQAPGQGLEWIGGLHPGNGDTSYNQKFKDRATLTADRSSNTAYMELSSLRSEDTAVYYCALTTAGRAWFAYWGQGTLVTVSS
VL: B1 VL with L73F, F83I, L96W
notes: Humanized candidate antibody; same remark on Fab/IgG wording as for 1021/1013; also called 1026/1011-IgG; VH1026 with VL1011
B3: 1026/1012 (antibody, V domains shown)
VH: B2 VH
VL: B1 VL with Q24R, L96W
notes: Humanized candidate antibody; same remark on Fab/IgG wording as for 1021/1013; also called 1026/1012-IgG; VH1026 with VL1012
B4: 1022/1013 (antibody, V domains shown)
VH: B1 VH with V5L, K13Q
VL: B1 VL
notes: Humanized candidate antibody; same remark on Fab/IgG wording as for 1021/1013; also called 1022/1013-IgG; VH1022 with VL1013

Molecular target: T1, recombinant protein of cynomolgus …
Test: ELISA on coated cynomolgus cynoIL-4Rα (10 ug/ml), HRP-linked secondary antibody, OD450
Description: (§1) 1 ug/ml human hIL-4Rα, 10 ug/ml cynomolgus cynoIL-4Rα, 1 ug/ml mouse mIL-4Rα (Sino Biological, Cat: 80198-R08H) and 1 ug/ml rat-derived ratIL-4Rα (Sino Biological, Cat: 51180-MO8H) are diluted in 0.05 M carbonate coating buffer (pH 9.5) at 4° C. overnight. The solution in the wells is discarded the next day and the wells are washed 3 times with PBS washing buffer. Then PBS solution containing 2% BSA is added for blocking for 2 hours. After washing 3 times with PBS washing buffer, 100 ul of humanized candidate antibodies at different diluted concentrations is added, incubated for 1 h at room temperature, and then washed 3 times with PBS washing buffer; the HRP cross-linked antibody (Jackson Immuno Research) is diluted at 1:10000 with PBS washing buffer and incubated for 1 hour at room temperature. After washing 3 times with PBS washing buffer, 100 ul of TMB substrate solution is added to develop color, and after reaction at room temperature for 10 minutes; the reaction is stopped by the addition of 50 ul of 0.5 M concentrated sulfuric acid solution and the absorbance at 450 nm is read.

EC50 [nM] | Binder
1.4 | B1
89.2 | B2
13.2 | B3
1.16 | B4

molecular target: T2, hIL-4Rα, full length, on stably …; test: flow cytometry blocking assay on 293-hIL-4Rα stably transfected cells; blocked ligand: biotin-labeled IL-4 at 0.15 ug/ml, SA-PE
Description: Every 1*10⁶ cells corresponds to 100 μl of 3% BSA/PBS solution, and the solution is blocked at 4° C. for 20 minutes. The prepared cells are added to a 96-well U-type plate at a volume of 100 μl/well, and centrifuged at 1100 rpm for 3 minutes, and the supernatant is discarded; and the primary antibody solution is added and incubated for 1 hour on ice. Purified candidate antibodies are made into 5 concentration series with a starting concentration of 100 nM, and diluted according to a series of 1:5. After incubation with the primary antibody solution, additional 0.5% BSA/PBS is added to a volume of 150 μl, centrifuged at 1100 rpm for 3 minutes, and the supernatant is discarded. 150 μl of 0.5% BSA/PBS is further added, centrifuged at 1100 rpm for 3 minutes, and the supernatant is discarded; biotin-labeled IL-4 at a final concentration of 0.15 ug/ml is added and incubated on ice for 45 minutes. The secondary antibody SA-PE is diluted at 1:300 with 1% BSA/PBS; 40 μl of the secondary antibody solution is added to each well and incubated on ice for 45 minutes. After incubation with the secondary antibody solution, additional 0.5% BSA/PBS is added to a volume of 150 μl, centrifuged at 1100 rpm for 3 minutes, and the supernatant is discarded; 150 μl of 0.5% BSA/PBS is further added, centrifuged at 1100 rpm for 3 minutes, and the supernatant is discarded. 20-100 μl of PBS is added to resuspend the cells to 1*10⁶ cells per ml, and the obtained suspension is loaded onto a flow cytometer (I-Que screener). After opening the instrument and operating system according to the correct process, and setting the correct parameters, the cells are loaded to the test plate, and the fluorescent signal is detected, analysis is performed using Graph Pad Prism 5 software.

IC50 (read off the curve) [nM] | Binder
~0.2 | B2
~0.2 | B3
~0.09 | B4

molecular target: T3, recombinant protein of human IL-4Rα …; test: ELISA on coated human hIL-4Rα (1 ug/ml), HRP-linked secondary antibody, OD450
Description: as §1

EC50 [nM] | Binder
0.064 | B1
0.06 | B2
0.017 | B3
0.067 | B4

molecular target: T2, hIL-4Rα, full length, on stably …; test: flow cytometry on 293-hIL-4Rα stably transfected cells, anti-human IgG Fab'2-AF647
Description: Every 1*10⁶ cells corresponds to 100 μl of 3% BSA/PBS solution, and the solution is blocked at 4° C. for 20 minutes. The prepared cells are added to a 96-well U-type plate at a volume of 100 μl/well, and centrifuged at 1100 rpm for 3 minutes, and the supernatant is discarded; and the primary antibody solution is added and incubated for 1 hour on ice. […] After incubation with the primary antibody solution, additional 0.5% BSA/PBS is added to a volume of […], centrifuged at 1100 rpm for 3 minutes, and the supernatant is discarded. 150 μl of 0.5% BSA/PBS is further added, centrifuged at 1100 rpm for 3 minutes, and the supernatant is discarded; before adding a secondary antibody anti-human IgG, Fab′2-AF647, same is diluted at 1:300 with 1% BSA/PBS. 40 μl of the secondary antibody solution is added to each well and incubated on ice for 45 minutes. After incubation with the secondary antibody solution, additional 0.5% BSA/PBS is added to a volume of 150 μl, centrifuged at 1100 rpm for 3 minutes, and the supernatant is discarded; 150 μl of 0.5% BSA/PBS is further added, centrifuged at 1100 rpm for 3 minutes, and the supernatant is discarded; 20-100 μl of PBS is added to resuspend the cells to 1*10⁶ cells per ml, and the obtained suspension is loaded onto a flow cytometer (I-Que screener). After opening the instrument and operating system according to the correct process, and setting the correct parameters, the cells are loaded to the test plate, and the fluorescent signal is detected, analysis is performed using Graph Pad Prism 5 software.

EC50 (read off the curve) [nM] | Binder
~0.03 | B1
~0.07 | B2
~0.06 | B3
